We go through 64 molecules from US20180177842A1 (CANIMGUIDE THERAPEUTICS, published 2018).

Ends that are not written are not given here.

For one assay, the target named is Artificial Cell Surface (ACS): biotinylated cell surface proteins of human PBMCs bound to a streptavidin column (human). Nature of the assay: adsorption on ACS column, MALDI-TOF ms.
Molecule YLYEIAR [Trypsin-generated albumin fragment, SEQ ID NO 203] showed a Percent Absorbed of 34%.

Molecule QEPERNECFLQHK (not fully specified) [Trypsin-generated albumin fragment, SEQ ID NO 207] returned a Percent Absorbed of 25%. For the molecule SLHTLFGDK [Trypsin-generated albumin fragment, SEQ ID NO 200], the Percent Absorbed came to 36%. KVPQVSTPTLVEVSR [Trypsin-generated albumin fragment, SEQ ID NO 195] returned a Percent Absorbed of 64%.

On to VPQVSTPTLVEVSR [Trypsin-generated albumin fragment, SEQ ID NO 197], for which the Percent Absorbed amounted to 59%. The molecule AVMDDFAAFVEK [Trypsin-generated albumin fragment, SEQ ID NO 208] had a Percent Absorbed of 23%. Consider FKDLGEENFK [Trypsin-generated albumin fragment, SEQ ID NO 213], for which the Percent Absorbed was determined as 8%.

For CCTESLVNR [Trypsin-generated albumin fragment, SEQ ID NO 206], the Percent Absorbed is 26%. On the same count and under the same terms, for DETYVPKEFNAETFTHA [Asp-N-generated albumin fragment, SEQ ID NO 220] the value was 86%. DHVKLVNEVTEFAKTCVA [Asp-N-generated albumin fragment, SEQ ID NO 217] gave a Percent Absorbed of 100%. Same read-out and setting: for NECFLQHK [Trypsin-generated albumin fragment, SEQ ID NO 209] the value was 22%; for VFDEFKPLVEEPQNLIK [Trypsin-generated albumin fragment, SEQ ID NO 196], 60%. The same measure, in the same setting: the figure for DSISSKLKECCEKPLLEKSHCIAEVEN [Asp-N-generated albumin fragment, SEQ ID NO 221] is 65%; for VHTECCHGDLLECADDR [Trypsin-generated albumin fragment, SEQ ID NO 212] it is 13%.

Molecule QEPERNECFLQHK (not fully specified) [Trypsin-generated albumin fragment, SEQ ID NO 211] registered a Percent Absorbed of 18%. Still for that read-out and setting: the figure for DDKETCFAEEGKKLVAASQAALGL [Asp-N-generated albumin fragment, SEQ ID NO 218] is 100%; for YICENQDSISSK [Trypsin-generated albumin fragment, SEQ ID NO 214] it is 3%. In turn, LKECCEKPLLEK [Trypsin-generated albumin fragment, SEQ ID NO 201] registered a Percent Absorbed of 36%. For CCAAADPHECYAK [Trypsin-generated albumin fragment, SEQ ID NO 204], the Percent Absorbed was determined as 32%. Still for that read-out and setting: for AAFTECCQAADK [Trypsin-generated albumin fragment, SEQ ID NO 205] the value was 29%; for RPCFSALEVDETYVPK [Trypsin-generated albumin fragment, SEQ ID NO 198], 42%; for DRVTKCCTESLVNRRPCFSALEV [Asp-N-generated albumin fragment, SEQ ID NO 219], 87%. Still for that read-out and setting: the figure for LDELRDEGK [Trypsin-generated albumin fragment, SEQ ID NO 215] is 2%; for KYLYEIAR [Trypsin-generated albumin fragment, SEQ ID NO 194] it is 71%; for LCTVATLR [Trypsin-generated albumin fragment, SEQ ID NO 202] it is 35%. The same measure, in the same setting: the figure for FQNALLVR [Trypsin-generated albumin fragment, SEQ ID NO 199] is 41%; for DDNPNLPR [Trypsin-generated albumin fragment, SEQ ID NO 216] it is 1%; for DKLCTVATLRETYGEM [Asp-N-generated albumin fragment, SEQ ID NO 222] it is 65%.

The next assay addresses T1, His-tagged P3028 (human, also: His tag, length and end not given here).
T1 construct: in solution at 0.5 ug/mL, detected with mouse anti-His antibody and rabbit anti-mouse peroxidase (rampo); also called PGE73; His-tag-P3028; not shown: His tag
T1 peptide: VFDEFKPLVEEPQNLIK
The experiment in a line: PEPSCAN ELISA, peptide on chip.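 Also: binding detected by peroxidase ELISA with ABTS, OD405 colour imaged by CCD camera before and after staining, raw OD405 reported as rampo units, air-bubble wells scored 0.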 In general terms: ELISA stands for enzyme-linked immunosorbent assay.
Take KKLDTFFVKLSTFTER [SEQ ID NO 358]: the “RAMPO Score” value was 437 rampo units.

As for KKLDTFFVKLSLFTET [SEQ ID NO 392], the “RAMPO Score” value amounted to 292 rampo units. The same measure, in the same setting: for KKLDTFFVKLSLFHER [SEQ ID NO 378] the value was 463 rampo units. Same read-out and setting: for KKLDTFFVKLSLFMER [SEQ ID NO 381] the value was 501 rampo units. For the molecule KKLDTFFVKLSLFPER [SEQ ID NO 383], the “RAMPO Score” value worked out at 551 rampo units.

As for KKLDTFFVKLSLITER [SEQ ID NO 365], the “RAMPO Score” value was 468 rampo units. Still for that read-out and setting: the figure for KKLDTFFVKLSLCTER [SEQ ID NO 362] is 400 rampo units; for KKLDTFFVKLSLFTDR [SEQ ID NO 387] it is 404 rampo units. In the case of KKLDTFFVKLSLTTER [SEQ ID NO 373], the “RAMPO Score” value worked out at 494 rampo units.

KKLDTFFVKLSLQTER [SEQ ID NO 370]: the “RAMPO Score” value amounted to 1140 rampo units. Same read-out and setting: the figure for KKLDTFFVKLSVFTER [SEQ ID NO 359] is 545 rampo units; for KKLDTFFVKLSLPTER [SEQ ID NO 369] it is 696 rampo units. Regarding KKLDTFFVKLSLRTER [SEQ ID NO 371], the “RAMPO Score” value worked out at 502 rampo units. Same read-out and setting: for KKLDTFFVKLSLFNER [SEQ ID NO 382] the value was 599 rampo units; for KKLDTFFVKLSLFTEN [SEQ ID NO 390], 311 rampo units. The same measure, in the same setting: the figure for KKLDTFFVKLSWFTER [SEQ ID NO 360] is 409 rampo units. In the case of KKLDTFFVKLSLFIER [SEQ ID NO 379], the “RAMPO Score” value turned out to be 375 rampo units. Consider KKLDTFFVKLSLFTEF [SEQ ID NO 388], for which the “RAMPO Score” value came to 297 rampo units. On the same count and under the same terms, the figure for KKLDTFFVKLSLSTER [SEQ ID NO 372] is 635 rampo units; for KKLDTFFVKLSLFGER [SEQ ID NO 377] it is 343 rampo units. As to KKLDTFFVKLSLATER [SEQ ID NO 361], the “RAMPO Score” value is 525 rampo units. Same read-out and setting: for KKLDTFFVKLSLFLER [SEQ ID NO 380] the value was 360 rampo units; for KKLDTFFVKLSLVTER [SEQ ID NO 374], 446 rampo units; for KKLDTFFVKLSLFTEY [SEQ ID NO 393], 311 rampo units. On the same count and under the same terms, the figure for KKLDTFFVKLSLMTER [SEQ ID NO 367] is 1190 rampo units; for KKLDTFFVKLSLHTER [SEQ ID NO 364] it is 1050 rampo units; for KKLDTFFVKLSLFWER [SEQ ID NO 386] it is 374 rampo units.

With KKLDTFFVKLSLFFER [SEQ ID NO 376], the “RAMPO Score” value stood at 348 rampo units. On the same count and under the same terms, the figure for KKLDTFFVKLSLGTER [SEQ ID NO 363] is 531 rampo units; for KKLDTFFVKLSLFSER [SEQ ID NO 384] it is 369 rampo units. Still for that read-out and setting: the figure for KKLDTFFVKLSLNTER [SEQ ID NO 368] is 862 rampo units; for KKLDTFFVKLSLFTEK [SEQ ID NO 389] it is 291 rampo units. Still for that read-out and setting: the figure for KKLDTFFVKLSLFVER [SEQ ID NO 385] is 380 rampo units; for KKLDTFFVKLSLLTER [SEQ ID NO 366] it is 448 rampo units.

Take KKLDTFFVKLSLWTER [SEQ ID NO 375]: the “RAMPO Score” value amounted to 430 rampo units. In the case of KKLDTFFVKLSLFTER [SEQ ID NO 391], the “RAMPO Score” value stood at 260 rampo units.
